Publication PMC6542541, “Broadly neutralizing antibodies from an individual that naturally cleared multiple hepatitis C virus infections uncover molecular determinants for E2 targeting and vaccine design” (PLoS Pathogens, 2019)

Assays:
HC-1 = experiment: global alanine scanning epitope mapping; settings: antibody at 1 μg/ml
HC84.26 = experiment: global alanine scanning epitope mapping; settings: antibody at 1 μg/ml
HMAb 212.1.1 = experiment: global alanine scanning epitope mapping; settings: antibody at 2 μg/ml
HMAb CBH-5 = experiment: global alanine scanning epitope mapping; settings: antibody at 1 μg/ml
HMAb CBH-7 = experiment: global alanine scanning epitope mapping; settings: antibody at 1 μg/ml
HMAb HC-11 = experiment: global alanine scanning epitope mapping; settings: antibody at 1 μg/ml
[1] = biological target: H77C 1a recombinant E1E2 (hepatitis C virus genotype 1a, isolate H77C) (UniProt P27958)
[2] = biological target: H77C 1a recombinant E1E2 (hepatitis C virus genotype 1a, isolate H77C) (UniProt P27958); remark: listed apart in the source
[3] = biological target: T1, complex of Hepatitis C virus genotype 1a P27958 (hepatitis C virus genotype 1a, isolate …, UniProt P27958); experiment: ELISA; blocking of E2 binding to CD81-LEL: HMAb at 10 μg/ml pre-incubated with H77C 1a E1E2 lysate (1 μg/ml E2) for 20 min at 4°C, then added to CD81-LEL wells; settings: one partner purified
T1 construct: envelope glycoprotein E1, cut product of the HCV polyprotein, genotype 1a isolate H77C; envelope glycoprotein E2, cut product of the HCV polyprotein, genotype 1a isolate H77C; residue numbers count on the H77C polyprotein; also called wt 1a H77C E1E2; 1a H77C E2

| Molecule | percent of parent (HC-1) [% WT] | percent of parent (HC84.26) [% WT] | percent of parent (HMAb 212.1.1) [% WT] | percent of parent (HMAb CBH-5) [% WT] | percent of parent (HMAb CBH-7) [% WT] | percent of parent (HMAb HC-11) [% WT] | % neutralization of 1a H77C HCVpp at 20 μg/ml [1] [%] | % neutralization of H77 (1a) Core-NS2 HCVcc at 25 μg/ml (FFU reduction) [2] [%] | IC50 of neutralization of H77 (1a) Core-NS2 HCVcc (FFU reduction) [2] [µg/mL] | binding result [3] |
| --- | --- | --- | --- | --- | --- | --- | --- | --- | --- | --- |
| H77C 1a recombinant E1E2 (from UniProt P27958) E431A | 97 | 105 | 147 | 224 | 101 | 64 | – | – | – | – |
| H77C 1a recombinant E1E2 (from UniProt P27958) N532A | 82 | 108 | 152 | 108 | 101 | 71 | – | – | – | – |
| H77C 1a recombinant E1E2 (from UniProt P27958) L438A | 77 | 122 | 87 | 4 | 89 | 1 | – | – | – | – |
| H77C 1a recombinant E1E2 (from UniProt P27958) G436A | 73 | – | 103 | 11 | 78 | 0 | – | – | – | – |
| H77C 1a recombinant E1E2 (from UniProt P27958) C429A | 0 | 24 | 0 | 2 | 157 | 0 | – | – | – | – |
| H77C 1a recombinant E1E2 (from UniProt P27958) T435A | 67 | 117 | 86 | 46 | 89 | 49 | – | – | – | – |
| H77C 1a recombinant E1E2 (from UniProt P27958) N430A | 39 | 85 | 143 | – | 155 | – | – | – | – | – |
| H77C 1a recombinant E1E2 (from UniProt P27958) G440A | 73 | 82 | 83 | 86 | 77 | – | – | – | – | – |
| H77C 1a recombinant E1E2 (from UniProt P27958) D535A | 14 | – | 6 | 0 | 116 | 1 | – | – | – | – |
| HMAb 212.1.1 (antibody) | – | – | – | – | – | – | 89 | 41 | 36 | – |
| H77C 1a recombinant E1E2 (from UniProt P27958) H638A | 47 | 34 | 26 | 6 | 42 | 27 | – | – | – | – |
| H77C 1a recombinant E1E2 (from UniProt P27958) G547A | – | – | 57 | 30 | 28 | 36 | – | – | – | – |
| H77C 1a recombinant E1E2 (from UniProt P27958) S424A | 53 | 75 | 41 | 10 | 163 | 18 | – | – | – | – |
| H77C 1a recombinant E1E2 (from UniProt P27958) D533A | 73 | 93 | 99 | 54 | 77 | 66 | – | – | – | – |
| H77C 1a recombinant E1E2 (from UniProt P27958) Y443A | 87 | 52 | 158 | 0 | 82 | 1 | – | – | – | – |
| H77C 1a recombinant E1E2 (from UniProt P27958) L433A | 97 | 122 | 2 | 128 | 103 | 103 | – | – | – | – |
| H77C 1a recombinant E1E2 (from UniProt P27958) W549A | – | – | 66 | 46 | 5 | 50 | – | – | – | – |
| H77C 1a recombinant E1E2 (from UniProt P27958) T534A | 88 | 116 | 162 | 125 | 101 | 83 | – | – | – | – |
| H77C 1a recombinant E1E2 (from UniProt P27958) F442A | – | – | 148 | 1 | 113 | 1 | – | – | – | – |

| Molecule | percent of parent (HC-1) [% WT] | percent of parent (HC84.26) [% WT] | percent of parent (HMAb 212.1.1) [% WT] | percent of parent (HMAb CBH-5) [% WT] | percent of parent (HMAb CBH-7) [% WT] | percent of parent (HMAb HC-11) [% WT] | % neutralization of 1a H77C HCVpp at 20 μg/ml [1] [%] | % neutralization of H77 (1a) Core-NS2 HCVcc at 25 μg/ml (FFU reduction) [2] [%] | IC50 of neutralization of H77 (1a) Core-NS2 HCVcc (FFU reduction) [2] [µg/mL] | binding result [3] |
| --- | --- | --- | --- | --- | --- | --- | --- | --- | --- | --- |
| H77C 1a recombinant E1E2 (from UniProt P27958) N548A | 88 | 85 | – | 51 | – | 70 | – | – | – | – |
| H77C 1a recombinant E1E2 (from UniProt P27958) G530A | 14 | 71 | 9 | 76 | – | 3 | – | – | – | – |
| H77C 1a recombinant E1E2 (from UniProt P27958) E637A | 246 | – | – | 40 | 145 | 202 | – | – | – | – |
| H77C 1a recombinant E1E2 (from UniProt P27958) L546A | 100 | 100 | 139 | 92 | 112 | 92 | – | – | – | – |
| H77C 1a recombinant E1E2 (from UniProt P27958) S432A | – | 102 | 108 | 73 | 104 | 57 | – | – | – | – |
| H77C 1a recombinant E1E2 (from UniProt P27958) W529A | 0 | 122 | 9 | 35 | 187 | 23 | – | – | – | – |
| H77C 1a recombinant E1E2 (from UniProt P27958) L427A | 51 | 100 | 3 | 6 | 370 | 26 | – | – | – | – |
| H77C 1a recombinant E1E2 (from UniProt P27958) L441A | 85 | 12 | 92 | 0 | 100 | 75 | – | – | – | – |
| H77C 1a recombinant E1E2 (from UniProt P27958) T425A | 51 | 69 | 18 | 1 | 101 | 10 | – | – | – | – |
| H77C 1a recombinant E1E2 (from UniProt P27958) P545A | 78 | 69 | 70 | 42 | 42 | 42 | – | – | – | – |
| H77C 1a recombinant E1E2 (from UniProt P27958) R639A | 100 | 87 | 88 | 48 | 86 | 76 | – | – | – | – |
| H77C 1a recombinant E1E2 (from UniProt P27958) N428A | 34 | 74 | 15 | 0 | 134 | 7 | – | – | – | – |
| H77C 1a recombinant E1E2 (from UniProt P27958) W437A | 67 | 98 | 58 | 3 | – | 0 | – | – | – | – |
| H77C 1a recombinant E1E2 (from UniProt P27958) V636A | 89 | 72 | 77 | 34 | – | 63 | – | – | – | – |
| H77C 1a recombinant E1E2 (from UniProt P27958) A426G | 35 | 88 | 8 | 0 | 253 | 23 | – | – | – | – |
| H77C 1a recombinant E1E2 (from UniProt P27958) P544A | – | – | 72 | 45 | 39 | 41 | – | – | – | – |
| H77C 1a recombinant E1E2 (from UniProt P27958) N434A | 102 | 97 | 18 | 92 | – | 88 | – | – | – | – |
| H77C 1a recombinant E1E2 (from UniProt P27958) A439G | 83 | 108 | 84 | 53 | – | – | – | – | – | – |
| HMAb HC-11 (antibody, V domains shown, germline IGHV1-69, 92% nucleotide identity; heavy chain CDR3; germline kappa 3-20, 96% nucleotide identity; light chain CDR3; also called domain B HMAb) VH: EVQLVESGAEVKKPGSSVKVSCKASGATFSSFIFSWVRQAPGQGPEWMGGIIPMFGTAKYAPRLQGRVTITADESTSTAYMDLSSLRFEDTAVYYCAMEVPGFCRGGSCSGYMDVWGKGTLVTVSP VL: AAVLTQSPGTLSLSPGERATLSCRASHSVSSSNLAWYQQKPGQAPRLLMYGASRRATGIPDRFSGSGSGTDFTLTISRLEPEDFAVYYCQQYGSSPITFGQGTRLDIK | – | – | – | – | – | – | – | – | – | binds |
